Results on one molecule are retold here after paper PMC12533970, “Highly accurate protein structure prediction-based virtual docking pipeline accelerating the identification of anti-schistosomal compounds”.

Some targets named below: SmU2AF65 (Schistosoma mansoni, UniProt C4Q2F6 1-521); SmU2AF65 Mutant 2 (Schistosoma mansoni, UniProt C4Q2F6 1-521, L255A;R270E;Q284R;V289A); SmU2AF65 Mutant 1 (Schistosoma mansoni, UniProt C4Q2F6 1-521, L255A;R270A;Q284A;V289A).
Holding throughout (experiment): EMSA; EMSA: 0.5 pmol FAM-RNA (heated 70 C 5 min, cooled on ice) with 1 ug WT or 2 ug mutant protein in 10 uL Beyotime reaction buffer (composition, salt and pH not stated), 20 min at room temperature; competitor 200 pmol unlabeled RNA; 6% native PAGE in 1x TBE pH 8.3
Details in all cases: protein: recombinant; tags: His+SUMO, cleaved with ULP1; single strand

In the case of UACAUAAAUUAAUAAGUAUUUUUACUUUUUUUUAUUUUCAAUUUCAACAG (ssRNA) [50-nt intron 3' region consensus RNA], the binding result is recorded as “binds” with SmU2AF65, “no binding” with SmU2AF65 Mutant 2 and “binds” with SmU2AF65 Mutant 1.
